Laboratory results from PMC6504876, “TFIIE orchestrates the recruitment of the TFIIH kinase module at promoter before release during transcription” (Nature Communications, 2019).

B1: Flag-TFIIEα (natural protein, UniProt P29083 1-439, looked up)
chain: MADPDVLTEVPAALKRLAKYVIRGFYGIEHALALDILIRNSCVKEEDMLELLKFDRKQLRSVLNNLKGDKFIKCRMRVETAADGKTTRHNYYFINYRTLVNVVKYKLDHMRRRIETDERDSTNRASFKCPVCSSTFTDLEANQLFDPMTGTFRCTFCHTEVEEDESAMPKKDARTLLARFNEQIEPIYALLRETEDVNLAYEILEPEPTEIPALKQSKDHAATTAGAASLAGGHHREAWATKGPSYEDLYTQNVVINMDDQEDLHRASLEGKSAKERPIWLRESTVQGAYGSEDMKEGGIDMDAFQEREEGHAGPDDNEEVMRALLIHEKKTSSAMAGSVGAAAPVTAANGSDSESETSESDDDSPPRPAAVAVHKREEDEEEDDEFEEVADDPIVMVAGRPFSYSEVSQRPELVAQMTPEEKEAYIAMGQRMFEDLFE
notes: TFIIEα, the α subunit of the general transcription factor TFIIE; The methods name an anti-Flag-Tag antibody among those used for the co-immunoprecipitations; also called rIIEα/WT; the α subunit of rIIEαβ; source: E. coli, purified; alone or co-produced with rIIEβ

What was measured:
Details in all cases: both partners purified
Flag-TFIIEα = biological target: B1; assay: co-IP; rIIEα/WT co-produced with rIIEβ/WT, /A150P or /D187Y, immunoprecipitated at 150 and 500 mM KCl; blots for IIEα and IIEβ (Fig. 3e)
[1] = biological target: T1, recombinant TFIIH (rIIH/WT) (UniProt P18074 1-760; P19447 1-782; P32780 1-548; Q92759 1-462; Q13888 1-395; Q13889 …); assay: co-IP; rIIH/WT immunoprecipitated with anti-p62 (protein G magnetic beads) and incubated with rIIEαβ (α and β added together as the co-produced rIIE), washes at 150 and 500 mM KCl; blots with anti-XPB, anti-IIEα, anti-IIEβ (Fig. 3b)
T1 construct: XPD subunit of TFIIH; XPB subunit of TFIIH; p62 subunit of TFIIH; p52 subunit of TFIIH; p44 subunit of TFIIH; p34 subunit of TFIIH; p8 (TTDA, TTD-A) subunit of TFIIH; cdk7 (CDK7 kinase), CAK subunit of TFIIH; cyclin H, CAK subunit of TFIIH; MAT1, CAK subunit of TFIIH; also called rIIH-XPD/WT; TFIIH/WT; copies: + + + + + + + + +

Flag-XPD/WT = biological target: T2, Flag-XPD/WT (UniProt P18074 1-760); assay: co-IP; purified rIIH with XPD/WT, /R112H or /R722W immunoprecipitated with anti-XPD and incubated at 150 and 500 mM KCl; blots for XPB, XPD, CDK7 (Fig. 3f)
T2 construct: XPD subunit of TFIIH; also called the XPD subunit of rIIH/WT; source: Sf21 insect cells infected with baculoviruses for all TFIIH subunits

| Binder | binding result (Flag-TFIIEα) | binding result [1] | binding result (Flag-XPD/WT) |
| --- | --- | --- | --- |
| His-TFIIEβ/WT (natural protein, UniProt P29084 1-291, looked up, TFIIEβ, the β subunit of the general transcription factor TFIIE, encoded by GTF2E2; also called rIIEβ/WT; the β subunit of rIIEαβ/WT; source: E. coli, purified; alone or co-produced with rIIEα/WT) MDPSLLRERELFKKRALSTPVVEKRSASSESSSSSSKKKKTKVEHGGSSGSKQNSDHSNGSFNLKALSGSSGYKFGVLAKIVNYMKTRHQRGDTHPLTLDEILDETQHLDIGLKQKQWLMTEALVNNPKIEVIDGKYAFKPKYNVRDKKALLRLLDQHDQRGLGGILLEDIEEALPNSQKAVKALGDQILFVNRPDKKKILFFNDKSCQFSVDEEFQKLWRSVTVDSMDEEKIEEYLKRQGISSMQESGPKKVAPIQRRKKPASQKKRRFKTHNEHLAGVLKDYSDITSSK | binds | binds |  |
| His-TFIIEβ/D187Y (natural protein, UniProt P29084 1-291, looked up, TFIIEβ with the trichothiodystrophy patient mutation D187Y; The mutation is found in TTD patients; also called rIIEβ/D187Y; the β subunit of rIIEαβ/D187Y; source: E. coli, co-produced with rIIEα/WT, purified) MDPSLLRERELFKKRALSTPVVEKRSASSESSSSSSKKKKTKVEHGGSSGSKQNSDHSNGSFNLKALSGSSGYKFGVLAKIVNYMKTRHQRGDTHPLTLDEILDETQHLDIGLKQKQWLMTEALVNNPKIEVIDGKYAFKPKYNVRDKKALLRLLDQHDQRGLGGILLEDIEEALPNSQKAVKALGYQILFVNRPDKKKILFFNDKSCQFSVDEEFQKLWRSVTVDSMDEEKIEEYLKRQGISSMQESGPKKVAPIQRRKKPASQKKRRFKTHNEHLAGVLKDYSDITSSK | binds | binds |  |
| His-TFIIEβ/A150P (natural protein, UniProt P29084 1-291, looked up, TFIIEβ with the trichothiodystrophy patient mutation c.448G>C [p.Ala150Pro]; The mutation is found in TTD patients; also called rIIEβ/A150P; the β subunit of rIIEαβ/A150P; source: E. coli, co-produced with rIIEα/WT, purified) MDPSLLRERELFKKRALSTPVVEKRSASSESSSSSSKKKKTKVEHGGSSGSKQNSDHSNGSFNLKALSGSSGYKFGVLAKIVNYMKTRHQRGDTHPLTLDEILDETQHLDIGLKQKQWLMTEALVNNPKIEVIDGKYAFKPKYNVRDKKPLLRLLDQHDQRGLGGILLEDIEEALPNSQKAVKALGDQILFVNRPDKKKILFFNDKSCQFSVDEEFQKLWRSVTVDSMDEEKIEEYLKRQGISSMQESGPKKVAPIQRRKKPASQKKRRFKTHNEHLAGVLKDYSDITSSK | binds | binds |  |
| B1 |  | binds |  |
| CDK7 (natural protein, UniProt P50613 1-346, looked up, CDK7 kinase, CAK subunit of TFIIH; It stood in the assay together with the other TFIIH subunits; also called CDK7 kinase of the CAK; source: Sf21 insect cells infected with baculoviruses for all TFIIH subunits; in whole cell extract, and purified within rIIH through Flag-XPD) MALDVKSRAKRYEKLDFLGEGQFATVYKARDKNTNQIVAIKKIKLGHRSEAKDGINRTALREIKLLQELSHPNIIGLLDAFGHKSNISLVFDFMETDLEVIIKDNSLVLTPSHIKAYMLMTLQGLEYLHQHWILHRDLKPNNLLLDENGVLKLADFGLAKSFGSPNRAYTHQVVTRWYRAPELLFGARMYGVGVDMWAVGCILAELLLRVPFLPGDSDLDQLTRIFETLGTPTEEQWPDMCSLPDYVTFKSFPGIPLHHIFSAAGDDLLDLIQGLFLFNPCARITATQALKMKYFSNRPGPTPGCQLPRPNCPVETLKEQSNPALAIKRKRTEALEQGGLPKKLIF |  |  | binds |
